Measured values reported in paper PMC4853233.

Assay: anti-FLAG western blot, 293T cells
Details: glycan lost; control: WT-TWSG1 adenovirus

B1: twisted gastrulation (TWSG1): N80Q/N146Q (protein)
parent chain: MKSHYIVLALASLTFLLCLPVSQSCNKALCASDVSKCLIQELCQCRPGEGNCPCCKECMLCLGALWDECCDCVGMCNPRNYSDTPPTSKSTVEELHEPIPSLFRALTEGDTQLNWNIVSFPVAEELSHHENLVSFLETVNQLHHQNVSVPSNNVHAPFPSDKERMCTVVYFDDCMSIHQCKISCESMGASKYRWFHNACCECIGPECIDYGSKTVKCMNCMF
For B1, the expression_or_secretion was “no change”.
